Laboratory results reported in patent US11504441B2, “Radiolabeled compounds targeting the prostate-specific membrane antigen” (PROVINCIAL HEALTH SERVICES AUTHORITY, priority 2019, dated 2022).

Assay: in vivo
Design: species or system mice
Settings: male, NODSCID 1L2RγKO, mouse, iv, total radioactivity

O=C(O)CCC[C@H](NC(=O)N[C@@H](CCCCNC(=O)[C@H](Cc1c2ccccc2cc2ccccc12)NC(=O)[C@H]1CC[C@H](CNC(=O)[C@H](CCCCNC(=O)CN2CCN(CC(=O)O)CCN(CC(=O)O)CCN(CC(=O)O)CC2)NC(=O)CNC(=O)CCCc2ccc(Cl)cc2)CC1)C(=O)O)C(=O)O [177Lu-HTK03153, metal not drawn]
tissue uptake at 1 h (Adrenal glands uptake): 4.52 ± 0.46 %ID/g
tissue uptake at 4 h (Adrenal glands uptake): 3.5 ± 0.46 %ID/g
tissue uptake at 24 h (Adrenal glands uptake): 2.35 ± 0.47 %ID/g
tissue uptake at 72 h (Adrenal glands uptake): 1.2 ± 0.26 %ID/g
tissue uptake at 120 h (Adrenal glands uptake): 0.82 ± 0.19 %ID/g
tissue uptake at 1 h (Blood uptake): 24.7 ± 2.11 %ID/g
tissue uptake at 4 h (Blood uptake): 18.8 ± 1.16 %ID/g
tissue uptake at 24 h (Blood uptake): 7.44 ± 1.12 %ID/g
tissue uptake at 72 h (Blood uptake): 1.46 ± 0.58 %ID/g
tissue uptake at 120 h (Blood uptake): 0.37 ± 0.13 %ID/g
tissue uptake at 1 h (Bone uptake): 1.26 ± 0.15 %ID/g
tissue uptake at 4 h (Bone uptake): 0.83 ± 0.15 %ID/g
tissue uptake at 24 h (Bone uptake): 0.4 ± 0.08 %ID/g
tissue uptake at 72 h (Bone uptake): 0.16 ± 0.06 %ID/g
tissue uptake at 120 h (Bone uptake): 0.06 ± 0.04 %ID/g
tissue uptake at 1 h (Brain uptake): 0.35 ± 0.03 %ID/g
tissue uptake at 4 h (Brain uptake): 0.27 ± 0.03 %ID/g
tissue uptake at 24 h (Brain uptake): 0.13 ± 0.02 %ID/g
tissue uptake at 72 h (Brain uptake): 0.05 ± 0.02 %ID/g
tissue uptake at 120 h (Brain uptake): 0.03 %ID/g
tissue uptake at 1 h (Fat uptake): 1.61 ± 0.36 %ID/g
tissue uptake at 4 h (Fat uptake): 1.46 ± 0.36 %ID/g
tissue uptake at 24 h (Fat uptake): 0.66 ± 0.16 %ID/g
tissue uptake at 72 h (Fat uptake): 0.3 ± 0.13 %ID/g
tissue uptake at 120 h (Fat uptake): 0.19 ± 0.09 %ID/g
tissue uptake at 1 h (Heart uptake): 5.95 ± 0.44 %ID/g
tissue uptake at 4 h (Heart uptake): 4.26 ± 0.44 %ID/g
tissue uptake at 24 h (Heart uptake): 1.9 ± 0.25 %ID/g
tissue uptake at 72 h (Heart uptake): 0.68 ± 0.25 %ID/g
tissue uptake at 120 h (Heart uptake): 0.32 ± 0.07 %ID/g
tissue uptake at 1 h (Intestine uptake): 1.56 ± 0.16 %ID/g
tissue uptake at 4 h (Intestine uptake): 1.22 ± 0.16 %ID/g
tissue uptake at 24 h (Intestine uptake): 0.78 ± 0.1 %ID/g
tissue uptake at 72 h (Intestine uptake): 0.3 ± 0.1 %ID/g
tissue uptake at 120 h (Intestine uptake): 0.18 ± 0.08 %ID/g
tissue uptake at 1 h (Kidneys uptake): 10 ± 1.09 %ID/g
tissue uptake at 4 h (Kidneys uptake): 9.1 ± 1.09 %ID/g
tissue uptake at 24 h (Kidneys uptake): 8.81 ± 1.06 %ID/g
tissue uptake at 72 h (Kidneys uptake): 4.95 ± 2.39 %ID/g
tissue uptake at 120 h (Kidneys uptake): 2.81 ± 0.35 %ID/g
tissue uptake at 1 h (Lacrimal uptake): 0.35 ± 0.07 %ID/g
tissue uptake at 4 h (Lacrimal uptake): 0.35 ± 0.14 %ID/g
tissue uptake at 24 h (Lacrimal uptake): 0.18 ± 0.06 %ID/g
tissue uptake at 72 h (Lacrimal uptake): 0.05 ± 0.05 %ID/g
tissue uptake at 120 h (Lacrimal uptake): 0.02 ± 0.02 %ID/g
tissue uptake at 1 h (Liver uptake): 3.61 ± 0.65 %ID/g
tissue uptake at 4 h (Liver uptake): 3.19 ± 0.65 %ID/g
tissue uptake at 24 h (Liver uptake): 1.52 ± 0.25 %ID/g
tissue uptake at 72 h (Liver uptake): 0.73 ± 0.21 %ID/g
tissue uptake at 120 h (Liver uptake): 0.4 ± 0.03 %ID/g
tissue uptake at 1 h (Lungs uptake): 10.8 ± 1.38 %ID/g
tissue uptake at 4 h (Lungs uptake): 9.4 ± 1.38 %ID/g
tissue uptake at 24 h (Lungs uptake): 3.93 ± 0.41 %ID/g
tissue uptake at 72 h (Lungs uptake): 1.87 ± 1.31 %ID/g
tissue uptake at 120 h (Lungs uptake): 0.56 ± 0.12 %ID/g
tissue uptake at 1 h (Muscle uptake): 1.54 ± 0.16 %ID/g
tissue uptake at 4 h (Muscle uptake): 1.19 ± 0.16 %ID/g
tissue uptake at 24 h (Muscle uptake): 0.56 ± 0.1 %ID/g
tissue uptake at 72 h (Muscle uptake): 0.18 ± 0.07 %ID/g
tissue uptake at 120 h (Muscle uptake): 0.07 ± 0.01 %ID/g
tissue uptake at 1 h (Pancreas uptake): 2.17 ± 0.21 %ID/g
tissue uptake at 4 h (Pancreas uptake): 1.6 ± 0.21 %ID/g
tissue uptake at 24 h (Pancreas uptake): 0.77 ± 0.09 %ID/g
tissue uptake at 72 h (Pancreas uptake): 0.29 ± 0.13 %ID/g
tissue uptake at 120 h (Pancreas uptake): 0.15 ± 0.04 %ID/g
tissue uptake at 1 h (Salivary uptake): 3.56 ± 0.39 %ID/g
tissue uptake at 4 h (Salivary uptake): 2.86 ± 0.39 %ID/g
tissue uptake at 24 h (Salivary uptake): 1.25 ± 0.14 %ID/g
tissue uptake at 72 h (Salivary uptake): 0.68 ± 0.22 %ID/g
tissue uptake at 120 h (Salivary uptake): 0.37 ± 0.04 %ID/g
tissue uptake at 1 h (Seminal uptake): 1.3 ± 0.32 %ID/g
tissue uptake at 4 h (Seminal uptake): 1.2 ± 0.32 %ID/g
tissue uptake at 24 h (Seminal uptake): 0.7 ± 0.5 %ID/g
tissue uptake at 72 h (Seminal uptake): 0.23 ± 0.11 %ID/g
tissue uptake at 120 h (Seminal uptake): 0.15 ± 0.05 %ID/g
tissue uptake at 1 h (Spleen uptake): 2.54 ± 0.27 %ID/g
tissue uptake at 4 h (Spleen uptake): 1.54 ± 0.27 %ID/g
tissue uptake at 24 h (Spleen uptake): 1.21 ± 0.24 %ID/g
tissue uptake at 72 h (Spleen uptake): 1.03 ± 0.46 %ID/g
tissue uptake at 120 h (Spleen uptake): 1.53 ± 0.71 %ID/g
tissue uptake at 1 h (Stomach uptake): 0.89 ± 0.15 %ID/g
tissue uptake at 4 h (Stomach uptake): 0.71 ± 0.15 %ID/g
tissue uptake at 24 h (Stomach uptake): 0.68 ± 0.15 %ID/g
tissue uptake at 72 h (Stomach uptake): 0.31 ± 0.17 %ID/g
tissue uptake at 120 h (Stomach uptake): 0.15 ± 0.1 %ID/g
tissue uptake at 1 h (Tail uptake): 5.38 ± 5.96 %ID/g
tissue uptake at 4 h (Tail uptake): 6.89 ± 5.96 %ID/g
tissue uptake at 24 h (Tail uptake): 1.55 ± 0.34 %ID/g
tissue uptake at 72 h (Tail uptake): 0.44 ± 0.15 %ID/g
tissue uptake at 120 h (Tail uptake): 0.24 ± 0.04 %ID/g
tissue uptake at 1 h (Testes uptake): 3.24 ± 0.4 %ID/g
tissue uptake at 4 h (Testes uptake): 3.45 ± 0.4 %ID/g
tissue uptake at 24 h (Testes uptake): 2.15 ± 0.33 %ID/g
tissue uptake at 72 h (Testes uptake): 1.38 ± 0.48 %ID/g
tissue uptake at 120 h (Testes uptake): 0.98 ± 0.22 %ID/g
tissue uptake at 1 h (Thyroid uptake): 4.8 ± 0.32 %ID/g
tissue uptake at 4 h (Thyroid uptake): 3.57 ± 0.32 %ID/g
tissue uptake at 24 h (Thyroid uptake): 1.95 ± 0.32 %ID/g
tissue uptake at 72 h (Thyroid uptake): 0.85 ± 0.28 %ID/g
tissue uptake at 120 h (Thyroid uptake): 0.52 ± 0.12 %ID/g
tissue uptake at 1 h (Tumor uptake): 14.2 ± 7.67 %ID/g
tissue uptake at 4 h (Tumor uptake): 27.9 ± 7.67 %ID/g
tissue uptake at 24 h (Tumor uptake): 57.2 ± 10.1 %ID/g
tissue uptake at 72 h (Tumor uptake): 69.1 ± 13.4 %ID/g
tissue uptake at 120 h (Tumor uptake): 86.4 ± 8.05 %ID/g
